Results: patent publication US20180177763A1, “SMALL MOLECULES THAT MIMIC OR ANTAGONIZE ACTIONS OF GRANULOCYTE COLONY-STIMULATING-FACTOR (G-CSF)” (published 2018)

How the values were obtained:
[1] = target: T1, Granulocyte-colony stimulating factor receptor (G-CSF-R) (human); experiment: saturation binding of radioligand to THP-1 monocytic cells, nonlinear regression
T1 chain: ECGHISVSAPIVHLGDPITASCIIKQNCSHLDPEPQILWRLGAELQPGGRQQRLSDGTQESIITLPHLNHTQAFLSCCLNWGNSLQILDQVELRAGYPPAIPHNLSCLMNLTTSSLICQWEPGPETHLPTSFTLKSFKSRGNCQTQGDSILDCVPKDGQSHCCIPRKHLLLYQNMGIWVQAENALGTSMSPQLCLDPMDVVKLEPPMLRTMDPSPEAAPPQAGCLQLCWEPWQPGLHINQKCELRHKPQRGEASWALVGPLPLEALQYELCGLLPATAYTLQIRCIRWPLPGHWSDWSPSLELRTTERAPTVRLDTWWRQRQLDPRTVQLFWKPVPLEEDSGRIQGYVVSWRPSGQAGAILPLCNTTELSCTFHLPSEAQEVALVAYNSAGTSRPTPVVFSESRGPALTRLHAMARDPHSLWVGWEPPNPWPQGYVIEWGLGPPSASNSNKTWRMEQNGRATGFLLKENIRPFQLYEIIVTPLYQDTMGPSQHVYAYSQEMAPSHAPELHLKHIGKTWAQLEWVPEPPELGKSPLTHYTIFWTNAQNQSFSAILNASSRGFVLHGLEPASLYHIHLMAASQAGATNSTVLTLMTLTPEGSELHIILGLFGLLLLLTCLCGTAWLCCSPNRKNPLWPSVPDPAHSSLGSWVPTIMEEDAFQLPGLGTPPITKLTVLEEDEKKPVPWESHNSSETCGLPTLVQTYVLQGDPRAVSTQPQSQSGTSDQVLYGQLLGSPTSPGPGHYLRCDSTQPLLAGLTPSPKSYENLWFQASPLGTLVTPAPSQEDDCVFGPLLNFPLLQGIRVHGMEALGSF
Method: (§1) Binding of [¹²⁵I]-G-CSF was measured using previously described method (Kondo, S., et al. Eur. J. Haematol. 1991, 46, 223-30) with some modifications (Pennington, A., et al. Alzheimer's Disease and Parkinsonism 2013, 3, 121). [¹²⁵I]-G-CSF (specific activity 46.55 TBq/mmol) was purchased from Perkin Elmer (Waltham, Mass.). Cells were incubated in 180 μL of binding medium containing 0.2% BSA, 5 mM MgSO₄, and 50 mM Hepes, pH 7.2 at a concentration of 1.5×10⁷ cells/mL and the appropriate concentration of [¹²⁵I]-G-CSF. Incubations were carried out at room temperature with periodic shaking to ensure continuous mixing of cells and radioactive ligand. […] Nonspecific binding of [¹²⁵I]-G-CSF was measured by incubations in the presence of a 100-fold molar excess of unlabeled G-CSF. […] Bound and free ligand activities were counted after cutting tubes in two pieces and placing the tips and tops, respectively into separate scintillation vials. […] The specific binding was determined from the amount of bound [¹²⁵I]-G-CSF blocked by competition with excess unlabeled G-CSF. The parameters of saturation binding experiments including dissociation constant (Kd), maximum binding capacity (Bmax) and binding cooperativity (h) were calculated with GraphPad Prism 5 software (La Jolla, Calif.) by using nonlinear regression analysis. […]

[2] = target: T1, Granulocyte-colony stimulating factor …; experiment: saturation binding of radioligand to THP-1 monocytic cells (value in the text differs from Table 2)
Method: as §1

[3] = target: T1, Granulocyte-colony stimulating factor …; experiment: saturation binding of radioligand to SH-SY5Y neuronal cells (value in the text differs from Table 2)
Method: as §1

[4] = target: T1, Granulocyte-colony stimulating factor …; experiment: saturation binding of radioligand to SH-SY5Y neuronal cells, nonlinear regression
Method: as §1

B1: [125I]-G-CSF (ligand)
chain: TPLGPASSLPQSFLLKCLEQVRKIQGDGAALQEKLVSECATYKLCHPEELVLLGHSLGIPWAPLSSCPSQALQLAGCLSQLHSGLFLYQGLLQALEGISPELGPTLDTLQLDVADFATTIWQQMEELGMAPALQPTQGAMPAFASAFQRRAGGVLVASHLQSFLEVSYRVLRHLAQP
modifications: 125I radiolabel (specific activity 46.55 TBq/mmol); labelled residue not stated
[1]
  Kd: 53.8 pM
[2]
  Kd: 57.5 pM
[3]
  Kd: 607 pM
[4]
  Kd: 608 pM
